Test: soluble on expression in E. coli; label from the status in PepcDB or PDB records

Sequence	soluble on expression in E. coli
MSLGAKPFGEKKFIEIKGRRMAYIDEGTGDPILFQHGNPTSSYLWRNIMPHCAGLGRLIACDLIGMGDSDKLDPSGPERYAYAEHRDYLDALWEALDLGDRVVLVVHDWGSALGFDWARRHRERVQGIAYMEAIAMPIEWADFPEQDRDLFQAFRSQAGEELVLQDNVFVEQVLPGLILRPLSEAEMAAYREPFLAAGEARRPTLSWPRQIPIAGTPADVVAIARDYAGWLSESPIPKLFINAEPGALTTGRMRDFCRTWPNQTEITVAGAHFIQEDSPDEIGAAIAAFVRRLRPAHHHHHH	soluble
MSLGANIVSVEFIPVNVAATNWSENTVIVKVTDENGVYGLGEADGPPECMKAFSEIENEHKWLNNIKEAVIGRDPLEFRANYNRMYDTTKWIGMRGLGLFAISGIDMALYDLAGKQLGVPAYKLMGGAQKAQLTPYFTLYPSVAADATLSEIVEAYKPLIAKAKERGAKAVKVCIIPNDKVSDKEIVAYLRELREVIGWDMDMMVDCLYRWTDWQKARWTFRQLEDIDLYFIEACLQHDDLIGHQKLAAAINTRLCGAEMSTTRFEAQEWLEKTGISVVQSDYNRCGGVTELLRIMDICEHHNAQLMPHNWKTGITAAAARHFGIVCHISEYVEYLHPDFWNGTLTQQLTLNEPKIIDGAIEVSDKPGLGIELNIEFVEQVTGHKFEGHHHHHH	soluble
MSLGDLPLGWHKLHLKSNERSAECGLIITPARLSTADKYLDSPRSGVMAQIYSVRSTLSWGMGDFNDLGNLASVVAQDGADFLLINPMHAAEPLPPTEDSPYLPTTRRFINPIYIRVEDIPEFNQLEIDLRDDIAEMAAEFRERNLTSDIIERNDVYAAKLQVLRAIFEMPRSSEREANFVSFVQREGQGLIDFATWCADRETAQSESVHGTEPDRDELTMFYMWLQWLCDEQLAAAQKRAVDAGMSIGIMADLAVGVHPGGADAQNLSHVLAPDASVGAPPDGYNQQGQDWSQPPWHPVRLAEEGYIPWRNLLRTVLRHSGGIRVDHVLGLFRLFVMPRMQSPATGTYIRFDHNALVGILALEAELAGAVVIGEDLGTFEPWVQDALAQRGIMGTSILWFEHSPSQPGPRRQEEYRPLALTTVTTHDLPPTAGYLEGEHIALRERLGVLNTDPAAELAEDLQWQAEILDVAASANALPAREYVGLERDQRGELAELLEGLHTFVAKTPSALTCVCLVDMVGEKRAQNQPGTTRDMYPNWCIPLCDSEGNSVLIESLRENELYHRVAKASKRDEGHHHHHH	not soluble
MSLGFHEVRFPASLSFGSVGGPERHTDVVTLANGHEERNTPWAHSRRRYDAGVAMRGLDDIETLIAFFEARQAQLHGFRWKDWSDYKSGPALAEPAYHDQIIAIGDDVTASFPLIKAYRSGEQIYRRPITKPVAGTVRIGLSGDEQQEGVHYEVDTTTGIITFAHPPNEGLEITAGFEFDVPVRFDTDRIQTSVASFQAGDMPNVPVVEIRVEGHHHHHH	soluble
MSLGGNGREKDHASELRSIFSLKKIADAVNGYEEAKYVVFGIPFDNTSSYRRGSKYAPDSIRGAYVNLESYEYSYGIDLLASGMADLGDMEESEDVEYVIDTVESVVSAVMSDGKIPIMLGGEHSITVGAVRALPKDVDLVIVDAHSDFRSSYMGNKYNHACVTRRALDLLGEGRITSIGIRSVSREEFEDPDFRKVSFISSFDVKKNGIDKYIEEVDRKSRRVYISVDMDGIDPAYAPAVGTPEPFGLADTDVRRLIERLSYKAVGFDIVEFSPLYDNGNTSMLAAKLLQVFIASREKYYKEHIEGHHHHHH	soluble
MSLGIIRSILDTDLYKFTTGYAYAKLFPRAYGEFRFIDRNRQGFTEEFAELVRGEIRAMAALSLTRDEKEFLQRELPYLPPIYIDFLDGFRFDPEEVTVSIDAQGHLDIRAQGLLYRVTLWETPILAVISELYYRFIGAKPDWKQVEEVTRSKGELMREHRTTFSIFGMRRRFSLEVEDRVTDILKQYAGESLFGTSNVHLAHKHGLRVSGTHPHEWIQFHGAIYGYKMANYVAMEDWINVYDGDLGTVLTDTYTTDVFMRNFSKKHAMLFTSLRHDSGDPEIFIEKAVRRYEELRVDPKIKYIIFSDSLTPQRAIEIQKLCAGRIKASFGIGTNLTNDVGGGVEPLNIVMKLWKCKMTAKDDWHYCVKLSDVDGKHTGEPEEILLAMNTLGIKPKEGHHHHHH	soluble
MSLGILEQLENPKFKATKSEKTLIEYIKSDLDNIIYKSISIIAKESGVGEATITRFTKKLGFNGFQDFKVTLAKEISNKKNTSIINLHVHRDESVTETANKMLKSSINILEQTVKQIDLDLMCKCRDLIMNAKRVYFIGIGYSGIAATDINYKFMRIGFTTVPVTDSHTMVIMSSITNDDDVIVAISNSGTTKEVIKTVKQAKENGTKIITLTEDSDNPLRKLSDYELTYTSAETIFETGSISSKIPQIFLLDLLYTEVIKEMFSEAVEKKIKTTSAILNEGHHHHHH	soluble
MSLGIPKHDFYLYQSQWVSVKKKPMVHLLPHWNWENKELASKVADSEGKIPVRAYSNASSVELFLNGKSLGLKTFNKKQTSDGRTYQEGANANELYLEWKVAYQPGTLEAIARDESGKEIARDKITTAGKPAAVRLIKEDHAIAADGKDLTYIYYEIVDSQGNVVPTANNLVRFQLHGQGQLVGVDNGEQASRERYKAQADGSWIRKAFNGKGVAIVKSTEQAGKFTLTAHSDLLKSNQVTVFTGKKEGQEKTVLGTEVPKVQTIIGEAPEMPTTVPFVYSDGSRAERPVTWSSEGHHHHHH	soluble
MSLGIPPNEAKTLGTYVPGDITLVDSYGNEFQLKNLKGKPIILSPIYTHCRAACPLITKSLLKVIPKLGTPGKDFWVITFTFDPKDTLEDIKRFQKEYGIDGKGWKVVKAKTSEDLFKLLDAIDFRFMTAGNDFIHPNVVVVLSPELQIKDYIYGVNYNYLEFVNALRLARGEGHHHHHH	soluble
MSLGIRSGNNNGGFTNLTSQAPQTTQMFQSQSQLQPQPQPQPQQQQQHLQFNGSSDASSLRFGNSLSNTVNANNYSSNIGNNSINNNNIKNGTNNISQHGQGNNPSWVNNPKKRFTPHTVIRRKTTKQNSSSDINQNDDSSSMNATMRNFSKQNQDSKHNERNKSAANNDISSLLSNFNDIPPSVTLQDWQREDEFGSIPSLTTQFVTDKYTAKKTNRSAYDSKNTPNVFDKDSYVRIANIEQNHLDNNYNTAETNNKVHETSSKSSSLSAIIVFGYPESISNELIEHFSHFGHIMEDFQVLRLGRGINPNTFRIFHNHDTGCDENDSTVNKSITLKGRNNESNNKKYPIFTGESWVKLTYNSPSSALRALQENGTIFRGSLIGCIPYSKNAVEQLAGCKIDNVDDIGEFNVSMYQNSSTSSTSNTPSPPNVIITDGTLLREDDNTPAGHAGNPTNISSPIVANSPNKRLDVIDGKLPFMQNAGEGHHHHHH	soluble
MSLGIVIYGTRIIYPAEHKEVMVQLMNQGNRSSLMQAWIDDGDTSLPPEKIQVPFMLTPPVAKIGANSGQQVKIKIMPNKLPTNKESIFYLNVLDIPPNSPEQEGKNALKFAMQNRIKLFYRPAGIAPVNKVTFKKLLVNRSGNGLVIKNDSANWVTISDVKANNVKVNYETIMIAPLESQSVNVKSNNANNWHLTIIDDHGNYISDKEGHHHHHH	soluble
MSLGLKIEEARVIVCCPGRNFVTLKIITNEGIYGLGDATLNGRELSVVSYLEDHVIPCLIGRDPHQIEDIWQFLYRGAYWRRGPITMSAIAAVDTALWDIKAKAAGLPLYQMLGGKSRTGVMVYGHANGRDIEETVEEVGRYIEIGYQAVRAQCGIPGLPSTYGVSNDKMFYEPADADLPSENIWSTSRYLDHVPKLFEKLRQVHGWDVHLLHDVHHRLTPIEAARLGQSLEPMRLFWLEDIVPAENQEGFRIIRNHTTTPLAVGEVFNTIWDCKNLIEEQLFDYIRSTVVHAGGITHLRRIADLAGLYHVKTGCHGATDLSPVCMGAALNFDLWVPNFGIQEYMRHAEITNEVFPHHYNFSNGFLHPGESPGHGVDLDEKLAAKYPYQRAYLPVNRLEDGTMWNWEGHHHHHH	not soluble
MSLGLNILKTLRSHRVSEGVSNSDTHYELTSALIKSLRGSDIDASIYYLARLIQGGEEPAFLARRMVIFASEDIGNANPNALNLATNVMLAVSKIGYPEARIILAQCAVYLASSPKSNSSYKAINDAIEFVENRPALPVPKYLINTDKAKSEYLYPHDFGGWVEQKYMSTQVKFYKSNAIGFEKTLDEWITKLKESYNEKEGHHHHHH	soluble

Source: the DeepSol protein solubility set
